# Literature values, collected in publication PMC3439503.
# Molecular target: dystrophin N-ABD N-ABD (Homo sapiens) (UniProt P11532)
substance,measurement,value
dystrophin N-ABD N-ABD (from UniProt P11532),Kd,4 µM
